# According to US20070020688A1, “Measurement method using biosensor” (FUJI PHOTO FILM CO., LTD., priority 2005, published 2007):
# What was measured:
# trypsin [1] = biological target: T1, trypsin (Bos taurus, UniProt P00760); experiment: Compound binding amount on trypsin-immobilized hydrogel-coated chip by surface plasmon resonance; conditions: for Compound binding amount (RU): compound 0.01 mM, 3 minutes
# T1 construct: purchased Worthington
# T1 sequence (P00760 24-246): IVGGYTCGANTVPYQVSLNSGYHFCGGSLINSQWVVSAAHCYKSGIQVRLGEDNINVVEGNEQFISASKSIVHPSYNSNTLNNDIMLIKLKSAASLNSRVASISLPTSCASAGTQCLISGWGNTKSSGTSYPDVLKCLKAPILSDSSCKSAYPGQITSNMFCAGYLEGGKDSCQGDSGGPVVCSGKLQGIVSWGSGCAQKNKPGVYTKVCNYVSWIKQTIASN
# Description: Trypsin (manufactured by Worthington) was immobilized on the hydrogel-coated measurement chip produced in (2) above. Measurement was carried out using the surface plasmon resonance measurement device described in (1) above.
# A mixed solution of 1-ethyl-2,3-dimethylaminopropylcarbodiimide (400 mM) and N-hydroxysuccinimide (100 mM) was added to a hydrogel-coated chip, followed by leaving at rest for 20 minutes. Thereafter, the resultant product was washed with a 10 mM phosphate buffer. Subsequently, the aforementioned trypsin solution was added thereto, followed by leaving at rest for the period of time shown in Table 1. Thereafter, the resultant product was subjected to a primary washing with a 10 mM phosphate buffer, and then subjected to a secondary washing with the washing solution shown in Table 1. Thereafter, the resultant product was further washed with a 10 mM phosphate buffer. It is to be noted that it has been known that if such a secondary washing is carried out with 10 mM NaOH, non-specifically adsorbed proteins are washed out, and a baseline drift thereby becomes stable during interaction measurement.
# By the aforementioned operations, trypsin was immobilized on the surface of the measurement chip via a covalent bond. The amount by which resonance signals (RU value) obtained before the addition of trypsin and after washing had changed was defined as the immobilized amount of trypsin (RU value).
# The measurement chip was washed with a 10 mM phosphate buffer, and it was then equipped in the surface plasmon resonance device of the present example. Thereafter, leupeptin (0.01 mM; phosphate buffer pH 7.4), the following kinase inhibitor, and an amphipathic compound (0.01 mM; phosphate buffer pH 7.4) were added thereto, followed by leaving at rest for 3 minutes. The amount by which resonance signals (RU value) had changed was defined as the binding amount of the compound.
# trypsin [2] = biological target: T1, trypsin; experiment: Enzyme activity of immobilized trypsin, fluorescence of decomposed Bz-Arg-MCA substrate; type: biochemical; conditions: for Enzyme activity (fluorescence intensity): 0.1 mM Bz-Arg-MCA, 120 minutes
# Description: Using the chip on which trypsin had been immobilized as described in (1) above, the enzyme activity of trypsin was measured. […] Specifically, a substrate specific to trypsin (benzoyl-L-arginine-4-methylcoumarin-7-amide (hereinafter referred to as Bz-Arg-MCA); Peptide Institute, Inc.) was allowed to react with trypsin, and fluorescence in the decomposed product was measured.
# The 10 mM phosphate buffer contained in the measurement chip was removed, and 0.1 mM Bz-Arg-MCA was then added thereto. The reaction was then carried out for 120 minutes.
# Fluorescence measurement was carried out regarding fluorescence for each of the aforementioned reaction times, using the BMGLabTechnologies FLUOstar measurement device (excitation: 380 nm; and emission: 460 nm).
molecule,measurement,setting,value
"CC(=O)N[C@@H](CC(C)C)C(=O)N[C@@H](CC(C)C)C(=O)N[C@H](C=O)CCCNC(=N)N [Leupeptin, leupeptin]",Compound binding amount (RU),"trypsin [1]; Experiment No. 1: trypsin immobilized in phosphate buffer (pH 7.4), 10 mg/ml, 1 hr, secondary washing phosphate buffer (pH 7.4)",25 RU
same,Compound binding amount (RU),"trypsin [1]; Experiment No. 2: trypsin immobilized in phosphate buffer (pH 7.4), 2 mg/ml, 1 hr, secondary washing phosphate buffer (pH 7.4)",19 RU
same,Compound binding amount (RU),"trypsin [1]; Experiment No. 3: trypsin immobilized in phosphate buffer (pH 7.4), 2 mg/ml, 1 hr, secondary washing 10 mM NaOH",8 RU
same,Compound binding amount (RU),"trypsin [1]; Experiment No. 4: trypsin immobilized in acetate buffer (pH 5.0), 0.1 mg/ml, 0.2 hr, secondary washing phosphate buffer (pH 7.4)",16 RU
same,"Binding to the surface, in words",trypsin [1]; surface of experiment No. 2,binds to the surface
Trypsin,Activity value (enzyme activity/immobilized amount),trypsin [2]; Experiment No. 1,0.055
same,Enzyme activity (fluorescence intensity),"trypsin [2]; Experiment No. 1: phosphate buffer (pH 7.4), 10 mg/ml, 1 hr, washing phosphate buffer (pH 7.4)",230
same,Activity value (enzyme activity/immobilized amount),trypsin [2]; Experiment No. 2,0.238
same,Enzyme activity (fluorescence intensity),"trypsin [2]; Experiment No. 2: phosphate buffer (pH 7.4), 2 mg/ml, 1 hr, washing phosphate buffer (pH 7.4)",615
same,Activity value (enzyme activity/immobilized amount),trypsin [2]; Experiment No. 3,0.160
same,Enzyme activity (fluorescence intensity),"trypsin [2]; Experiment No. 3: phosphate buffer (pH 7.4), 2 mg/ml, 1 hr, washing 10 mM NaOH",370
same,Activity value (enzyme activity/immobilized amount),trypsin [2]; Experiment No. 4,0.008
same,Enzyme activity (fluorescence intensity),"trypsin [2]; Experiment No. 4: acetate buffer (pH 5.0), 0.1 mg/ml, 0.2 hr, washing phosphate buffer (pH 7.4)",40
